Laboratory results taken from the supplement of paper PMC11908140.

B1: library; numbered along this chain (parent)
chain: MRKPRAAVGSGHRKQAASQEGRQKHAKNNSQAKPSACDGLARQPEEVVLQASVSSYHLFRDVAEVTAFRGSLLSWYDQEKRDLPWRRRAEDEMDLDRRAYAVWVSEVMLQQTQVATVINYYTGWMQKWPTLQDLASASLEEVNQLWAGLGYYSRGRRLQEGARKVVEELGGHMPRTAETLQQLLPGVGRYTAGAIASIAFGQATGVVDGNVARVLCRVRAIGADPSSTLVSQQLWGLAQQLVDPARPGDFNQAAMELGATVCTPQRPLCSQCPVESLCRARQRVEQEQLLASGSLSGSPDVEECAPNTGQCHLCLPPSEPWDQTLGVVNFPRKASRKPPREESSATCVLEQPGALGAQILLVQRPNSGLLAGLWEFPSVTWEPSEQLQRKALLQELQRWAGPLPATHLRHLGEVVHTFSHIKLTYQVYGLALEGQTPVTTVPPGARWLTQEEFHTAAVSTAMKKVFRVYQGQQPGTCMGSKRSQVSSPCSRKKPRMGQQVLDNFFRSHISTDAHSLNSAAQ

Variants of: B1
Assay: 8OG:A repair function score (normalized; synonymous = 0, nonsense = -1) (normalized log-likelihood score); higher = more repair activity (WT-like)
Settings: with 8OG:A DNA repair reporter (GFP) in HEK-293 MUTYH KO cells
Procedure: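 Saturation mutagenesis (NNN codon scan) of the MUTYH cDNA (521-aa nuclear isoform NM_001048174.1 / NP_001041639), stably expressed under doxycycline induction in HEK-293 MUTYH knockout cells. Cells were co-transfected with an 8OG:A-bearing GFP repair reporter plus mCherry and sorted 72 h later into GFP+ and GFP− bins, three replicates per tile. The Rosace log2 enrichment (GFP+ vs GFP−) was converted per tile to a normalized function score with synonymous variants centered at 0 and nonsense variants (codons 1-471) at -1; low-abundance variants were removed.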

| Variant | 8OG:A repair function score |
| --- | --- |
| MRKPRAAVGSGHRKQAASQEGRQKHAKNNSQAKPSACDGLARQPEEVVLQASVSSYHLFRDVAEVTAFRGSLLSWYDQEKRDLPWRRRAEDEMDLDRRAYAVWVSEVMLQQTQVATVINYYTGWMQKWPTLQDLPSASLEEVNQLWAGLGYYSRGRRLQEGARKVVEELGGHMPRTAETLQQLLPGVGRYTAGAIASIAFGQATGVVDGNVARVLCRVRAIGADPSSTLVSQQLWGLAQQLVDPARPGDFNQAAMELGATVCTPQRPLCSQCPVESLCRARQRVEQEQLLASGSLSGSPDVEECAPNTGQCHLCLPPSEPWDQTLGVVNFPRKASRKPPREESSATCVLEQPGALGAQILLVQRPNSGLLAGLWEFPSVTWEPSEQLQRKALLQELQRWAGPLPATHLRHLGEVVHTFSHIKLTYQVYGLALEGQTPVTTVPPGARWLTQEEFHTAAVSTAMKKVFRVYQGQQPGTCMGSKRSQVSSPCSRKKPRMGQQVLDNFFRSHISTDAHSLNSAAQ [A135P] | -0.477 |
| MRKPRAAVGSGHRKQAASQEGRQKHAKNNSQAKPSACDGLARQPEEVVLQASVSSYHLFRDVAEVTAFRGSLLSWYDQEKRDLPWRRRAEDEMDLDRRAYAVWVSEVMLQQTQVATVINYYTGWMQKWPTLQDLRSASLEEVNQLWAGLGYYSRGRRLQEGARKVVEELGGHMPRTAETLQQLLPGVGRYTAGAIASIAFGQATGVVDGNVARVLCRVRAIGADPSSTLVSQQLWGLAQQLVDPARPGDFNQAAMELGATVCTPQRPLCSQCPVESLCRARQRVEQEQLLASGSLSGSPDVEECAPNTGQCHLCLPPSEPWDQTLGVVNFPRKASRKPPREESSATCVLEQPGALGAQILLVQRPNSGLLAGLWEFPSVTWEPSEQLQRKALLQELQRWAGPLPATHLRHLGEVVHTFSHIKLTYQVYGLALEGQTPVTTVPPGARWLTQEEFHTAAVSTAMKKVFRVYQGQQPGTCMGSKRSQVSSPCSRKKPRMGQQVLDNFFRSHISTDAHSLNSAAQ [A135R] | -0.0784 |
| MRKPRAAVGSGHRKQAASQEGRQKHAKNNSQAKPSACDGLARQPEEVVLQASVSSYHLFRDVAEVTAFRGSLLSWYDQEKRDLPWRRRAEDEMDLDRRAYAVWVSEVMLQQTQVATVINYYTGWMQKWPTLQDLYSASLEEVNQLWAGLGYYSRGRRLQEGARKVVEELGGHMPRTAETLQQLLPGVGRYTAGAIASIAFGQATGVVDGNVARVLCRVRAIGADPSSTLVSQQLWGLAQQLVDPARPGDFNQAAMELGATVCTPQRPLCSQCPVESLCRARQRVEQEQLLASGSLSGSPDVEECAPNTGQCHLCLPPSEPWDQTLGVVNFPRKASRKPPREESSATCVLEQPGALGAQILLVQRPNSGLLAGLWEFPSVTWEPSEQLQRKALLQELQRWAGPLPATHLRHLGEVVHTFSHIKLTYQVYGLALEGQTPVTTVPPGARWLTQEEFHTAAVSTAMKKVFRVYQGQQPGTCMGSKRSQVSSPCSRKKPRMGQQVLDNFFRSHISTDAHSLNSAAQ [A135Y] | -0.211 |
| MRKPRAAVGSGHRKQAASQEGRQKHAKNNSQAKPSACDGLARQPEEVVLQASVSSYHLFRDVAEVTAFRGSLLSWYDQEKRDLPWRRRAEDEMDLDRRAYAVWVSEVMLQQTQVATVINYYTGWMQKWPTLQDLVSASLEEVNQLWAGLGYYSRGRRLQEGARKVVEELGGHMPRTAETLQQLLPGVGRYTAGAIASIAFGQATGVVDGNVARVLCRVRAIGADPSSTLVSQQLWGLAQQLVDPARPGDFNQAAMELGATVCTPQRPLCSQCPVESLCRARQRVEQEQLLASGSLSGSPDVEECAPNTGQCHLCLPPSEPWDQTLGVVNFPRKASRKPPREESSATCVLEQPGALGAQILLVQRPNSGLLAGLWEFPSVTWEPSEQLQRKALLQELQRWAGPLPATHLRHLGEVVHTFSHIKLTYQVYGLALEGQTPVTTVPPGARWLTQEEFHTAAVSTAMKKVFRVYQGQQPGTCMGSKRSQVSSPCSRKKPRMGQQVLDNFFRSHISTDAHSLNSAAQ [A135V] | -0.0536 |
| MRKPRAAVGSGHRKQAASQEGRQKHAKNNSQAKPSACDGLARQPEEVVLQASVSSYHLFRDVAEVTAFRGSLLSWYDQEKRDLPWRRRAEDEMDLDRRAYAVWVSEVMLQQTQVATVINYYTGWMQKWPTLQDLSSASLEEVNQLWAGLGYYSRGRRLQEGARKVVEELGGHMPRTAETLQQLLPGVGRYTAGAIASIAFGQATGVVDGNVARVLCRVRAIGADPSSTLVSQQLWGLAQQLVDPARPGDFNQAAMELGATVCTPQRPLCSQCPVESLCRARQRVEQEQLLASGSLSGSPDVEECAPNTGQCHLCLPPSEPWDQTLGVVNFPRKASRKPPREESSATCVLEQPGALGAQILLVQRPNSGLLAGLWEFPSVTWEPSEQLQRKALLQELQRWAGPLPATHLRHLGEVVHTFSHIKLTYQVYGLALEGQTPVTTVPPGARWLTQEEFHTAAVSTAMKKVFRVYQGQQPGTCMGSKRSQVSSPCSRKKPRMGQQVLDNFFRSHISTDAHSLNSAAQ [A135S] | -0.0157 |
| MRKPRAAVGSGHRKQAASQEGRQKHAKNNSQAKPSACDGLARQPEEVVLQASVSSYHLFRDVAEVTAFRGSLLSWYDQEKRDLPWRRRAEDEMDLDRRAYAVWVSEVMLQQTQVATVINYYTGWMQKWPTLQDLWSASLEEVNQLWAGLGYYSRGRRLQEGARKVVEELGGHMPRTAETLQQLLPGVGRYTAGAIASIAFGQATGVVDGNVARVLCRVRAIGADPSSTLVSQQLWGLAQQLVDPARPGDFNQAAMELGATVCTPQRPLCSQCPVESLCRARQRVEQEQLLASGSLSGSPDVEECAPNTGQCHLCLPPSEPWDQTLGVVNFPRKASRKPPREESSATCVLEQPGALGAQILLVQRPNSGLLAGLWEFPSVTWEPSEQLQRKALLQELQRWAGPLPATHLRHLGEVVHTFSHIKLTYQVYGLALEGQTPVTTVPPGARWLTQEEFHTAAVSTAMKKVFRVYQGQQPGTCMGSKRSQVSSPCSRKKPRMGQQVLDNFFRSHISTDAHSLNSAAQ [A135W] | -0.338 |
